Measured values published in patent US20230158141A1 (YAFEI SHANGHAI BIOLOG MEDICINE SCIENCE AND TECHNOLOGY, published 2023).

B1: anti-CD28 antibody heavy chain G54C-R4-1 (antibody, human IgG4, kappa, V domains shown)
VH: QVQLVQSGAEVKKPGASVKVSCKASGYTFTSYYIHWVRQAPGQGLEWIGCIYPCNVNTNYNEKFKDRATLTVDTSISTAYMELSRLRSDDTAVYFCTRSHYGLDWNFDVWGQGTTVTVSS
VL: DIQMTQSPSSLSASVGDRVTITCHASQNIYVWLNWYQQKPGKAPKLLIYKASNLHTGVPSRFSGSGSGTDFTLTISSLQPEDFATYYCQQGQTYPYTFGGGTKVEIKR
modifications: R4-1 on Cys 54
B2: anti-CD28 antibody heavy chain S31C-R4-1 (antibody, human IgG4, kappa, V domains shown)
VH: QVQLVQSGAEVKKPGASVKVSCKASGYTFTCYYIHWVRQAPGQGLEWIGCIYPGNVNTNYNEKFKDRATLTVDTSISTAYMELSRLRSDDTAVYFCTRSHYGLDWNFDVWGQGTTVTVSS
VL: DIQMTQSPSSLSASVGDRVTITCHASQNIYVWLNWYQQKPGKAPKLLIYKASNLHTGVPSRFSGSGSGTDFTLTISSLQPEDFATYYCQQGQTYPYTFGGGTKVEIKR
modifications: R4-1 on Cys 31
B3: anti-CD28 antibody heavy chain G102C-R4-1 (antibody, human IgG4, kappa, V domains shown)
VH: QVQLVQSGAEVKKPGASVKVSCKASGYTFTSYYIHWVRQAPGQGLEWIGCIYPGNVNTNYNEKFKDRATLTVDTSISTAYMELSRLRSDDTAVYFCTRSHYCLDWNFDVWGQGTTVTVSS
VL: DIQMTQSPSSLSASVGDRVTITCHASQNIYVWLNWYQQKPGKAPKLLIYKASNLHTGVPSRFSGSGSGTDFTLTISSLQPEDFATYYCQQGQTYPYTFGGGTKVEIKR
modifications: R4-1 on Cys 102
B4: anti-CD28 antibody heavy chain S99C-R4-1 (antibody, human IgG4, kappa, V domains shown)
VH: QVQLVQSGAEVKKPGASVKVSCKASGYTFTSYYIHWVRQAPGQGLEWIGCIYPGNVNTNYNEKFKDRATLTVDTSISTAYMELSRLRSDDTAVYFCTRCHYGLDWNFDVWGQGTTVTVSS
VL: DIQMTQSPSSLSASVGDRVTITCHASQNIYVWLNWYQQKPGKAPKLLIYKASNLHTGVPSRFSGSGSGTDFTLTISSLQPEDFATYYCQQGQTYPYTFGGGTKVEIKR
modifications: R4-1 on Cys 99
B5: anti-CTLA-4 antibody heavy chain A61C (antibody, human IgG1, kappa, V domains shown)
VH: QVQLVESGGGVVQPGRSLRLSCAASGFTFSSYTMHWVRQAPGKGLEWVTFISYDGNNKYYCDSVKGRFTISRDNSKNTLYLQMNSLRAEDTAIYYCARTGWLGPFDYWGQGTLVTVSS
VL: not shown
B6: anti-CTLA-4 antibody heavy chain G66C (antibody, human IgG1, kappa, V domains shown)
VH: QVQLVESGGGVVQPGRSLRLSCAASGFTFSSYTMHWVRQAPGKGLEWVTFISYDGNNKYYADSVKCRFTISRDNSKNTLYLQMNSLRAEDTAIYYCARTGWLGPFDYWGQGTLVTVSS
VL: not shown
B7: anti-CTLA-4 antibody heavy chain S30C (antibody, human IgG1, kappa, V domains shown)
VH: QVQLVESGGGVVQPGRSLRLSCAASGFTFCSYTMHWVRQAPGKGLEWVTFISYDGNNKYYADSVKGRFTISRDNSKNTLYLQMNSLRAEDTAIYYCARTGWLGPFDYWGQGTLVTVSS
VL: not shown
B8: anti-CTLA-4 antibody heavy chain S63C (antibody, human IgG1, kappa, V domains shown)
VH: QVQLVESGGGVVQPGRSLRLSCAASGFTFSSYTMHWVRQAPGKGLEWVTFISYDGNNKYYADCVKGRFTISRDNSKNTLYLQMNSLRAEDTAIYYCARTGWLGPFDYWGQGTLVTVSS
VL: not shown
B9: anti-CTLA-4 antibody heavy chain S31C (antibody, human IgG1, kappa, V domains shown)
VH: QVQLVESGGGVVQPGRSLRLSCAASGFTFSCYTMHWVRQAPGKGLEWVTFISYDGNNKYYADSVKGRFTISRDNSKNTLYLQMNSLRAEDTAIYYCARTGWLGPFDYWGQGTLVTVSS
VL: not shown
B10: anti-CTLA-4 antibody heavy chain G55C (antibody, human IgG1, kappa, V domains shown)
VH: QVQLVESGGGVVQPGRSLRLSCAASGFTFSSYTMHWVRQAPGKGLEWVTFISYDCNNKYYADSVKGRFTISRDNSKNTLYLQMNSLRAEDTAIYYCARTGWLGPFDYWGQGTLVTVSS
VL: not shown
B11: anti-CTLA-4 antibody heavy chain L102C (antibody, human IgG1, kappa, V domains shown)
VH: QVQLVESGGGVVQPGRSLRLSCAASGFTFSSYTMHWVRQAPGKGLEWVTFISYDGNNKYYADSVKGRFTISRDNSKNTLYLQMNSLRAEDTAIYYCARTGWCGPFDYWGQGTLVTVSS
VL: not shown
B12: anti-CTLA-4 antibody heavy chain T33C (antibody, human IgG1, kappa, V domains shown)
VH: QVQLVESGGGVVQPGRSLRLSCAASGFTFSSYCMHWVRQAPGKGLEWVTFISYDGNNKYYADSVKGRFTISRDNSKNTLYLQMNSLRAEDTAIYYCARTGWLGPFDYWGQGTLVTVSS
VL: not shown
B13: anti-PD-1 antibody 2 heavy chain D62C (antibody, human IgG4 S228P, kappa, V domains shown)
VH: QVQLVESGGGVVQPGRSLRLDCKASGITFSNSGMHWVRQAPGKGLEWVAVIWYDGSKRYYACSVKGRFTISRDNSKNTLFLQMNSLRAEDTAVYYCATNDDYWGQGTLVTVSS
VL: EIVLTQSPATLSLSPGERATLSCRASQSVSSYLAWYQQKPGQAPRLLIYDASNRATGIPARFSGSGSGTDFTLTISSLEPEDFAVYYCQQSSNWPRTFGQGTKVEIKR
B14: anti-PD-1 antibody 2 heavy chain K65C (antibody, human IgG4 S228P, kappa, V domains shown)
VH: QVQLVESGGGVVQPGRSLRLDCKASGITFSNSGMHWVRQAPGKGLEWVAVIWYDGSKRYYADSVCGRFTISRDNSKNTLFLQMNSLRAEDTAVYYCATNDDYWGQGTLVTVSS
VL: EIVLTQSPATLSLSPGERATLSCRASQSVSSYLAWYQQKPGQAPRLLIYDASNRATGIPARFSGSGSGTDFTLTISSLEPEDFAVYYCQQSSNWPRTFGQGTKVEIKR
B15: anti-PD-1 antibody 2 heavy chain K57C (antibody, human IgG4 S228P, kappa, V domains shown)
VH: QVQLVESGGGVVQPGRSLRLDCKASGITFSNSGMHWVRQAPGKGLEWVAVIWYDGSCRYYADSVKGRFTISRDNSKNTLFLQMNSLRAEDTAVYYCATNDDYWGQGTLVTVSS
VL: EIVLTQSPATLSLSPGERATLSCRASQSVSSYLAWYQQKPGQAPRLLIYDASNRATGIPARFSGSGSGTDFTLTISSLEPEDFAVYYCQQSSNWPRTFGQGTKVEIKR
B16: anti-PD-1 antibody 2 heavy chain Y59C (antibody, human IgG4 S228P, kappa, V domains shown)
VH: QVQLVESGGGVVQPGRSLRLDCKASGITFSNSGMHWVRQAPGKGLEWVAVIWYDGSKRCYADSVKGRFTISRDNSKNTLFLQMNSLRAEDTAVYYCATNDDYWGQGTLVTVSS
VL: EIVLTQSPATLSLSPGERATLSCRASQSVSSYLAWYQQKPGQAPRLLIYDASNRATGIPARFSGSGSGTDFTLTISSLEPEDFAVYYCQQSSNWPRTFGQGTKVEIKR
B17: anti-PD-1 antibody 2 heavy chain Y53C (antibody, human IgG4 S228P, kappa, V domains shown)
VH: QVQLVESGGGVVQPGRSLRLDCKASGITFSNSGMHWVRQAPGKGLEWVAVIWCDGSKRYYADSVKGRFTISRDNSKNTLFLQMNSLRAEDTAVYYCATNDDYWGQGTLVTVSS
VL: EIVLTQSPATLSLSPGERATLSCRASQSVSSYLAWYQQKPGQAPRLLIYDASNRATGIPARFSGSGSGTDFTLTISSLEPEDFAVYYCQQSSNWPRTFGQGTKVEIKR
B18: anti-PD-1 antibody 2 heavy chain Y60C (antibody, human IgG4 S228P, kappa, V domains shown)
VH: QVQLVESGGGVVQPGRSLRLDCKASGITFSNSGMHWVRQAPGKGLEWVAVIWYDGSKRYCADSVKGRFTISRDNSKNTLFLQMNSLRAEDTAVYYCATNDDYWGQGTLVTVSS
VL: EIVLTQSPATLSLSPGERATLSCRASQSVSSYLAWYQQKPGQAPRLLIYDASNRATGIPARFSGSGSGTDFTLTISSLEPEDFAVYYCQQSSNWPRTFGQGTKVEIKR
B19: anti-PD-1 antibody 1 heavy chain K65C (antibody, human IgG4 S228P, kappa, V domains shown)
VH: QVQLVQSGVEVKKPGASVKVSCKASGYTFTNYYMYWVRQAPGQGLEWMGGINPSNGGTNFNEKFCNRVTLTTDSSTTTAYMELKSLQFDDTAVYYCARRDYRFDMGFDYWGQGTTVTVSS
VL: EIVLTQSPATLSLSPGERATLSCRASKGVSTSGYSYLHWYQQKPGQAPRLLIYLASYLESGVPARFSGSGSGTDFTLTISSLEPEDFAVYYCQHSRDLPLTFGGGTKVEIKR
B20: anti-PD-1 antibody 1 heavy chain Y32C (antibody, human IgG4 S228P, kappa, V domains shown)
VH: QVQLVQSGVEVKKPGASVKVSCKASGYTFTNCYMYWVRQAPGQGLEWMGGINPSNGGTNFNEKFKNRVTLTTDSSTTTAYMELKSLQFDDTAVYYCARRDYRFDMGFDYWGQGTTVTVSS
VL: EIVLTQSPATLSLSPGERATLSCRASKGVSTSGYSYLHWYQQKPGQAPRLLIYLASYLESGVPARFSGSGSGTDFTLTISSLEPEDFAVYYCQHSRDLPLTFGGGTKVEIKR

Each binder was assayed against CD28 (UniProt P10747 19-152, limits assumed) (assay: ELISA, conjugate vs WT antibody).

Binder	binding activity (% of WT)
B1	97.9%
B2	97.5%
B3	80.1%
B4	87.6%

These binders were tested against CTLA-4 (UniProt P16410 36-162, limits assumed) (assay: ELISA, OD mutant/OD WT; A=90-110%).
CTLA-4, sequence (P16410 36-162 limits assumed): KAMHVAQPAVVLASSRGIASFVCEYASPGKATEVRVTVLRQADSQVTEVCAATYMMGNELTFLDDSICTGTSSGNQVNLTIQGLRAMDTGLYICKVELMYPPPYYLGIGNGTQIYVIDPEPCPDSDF

Binder	binding activity (OD after mutation/OD wild type)
B5	90 to 110%
B6	90 to 110%
B7	90 to 110%
B8	90 to 110%
B9	90 to 110%
B10	90 to 110%
B11	90 to 110%
B12	90 to 110%

These binders were tested against PD-1 (UniProt Q15116 25-167, limits assumed) (assay: ELISA, OD mutant/OD WT; ↓=less than 70%).
PD-1, sequence (Q15116 25-167 limits assumed): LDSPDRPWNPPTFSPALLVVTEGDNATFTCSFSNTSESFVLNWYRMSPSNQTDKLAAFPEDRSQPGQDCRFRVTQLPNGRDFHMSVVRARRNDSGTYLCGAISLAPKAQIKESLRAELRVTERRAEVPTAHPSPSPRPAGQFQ

Binder	binding activity vs wild type
B13	< 70%
B14	< 70%
B15	< 70%
B16	< 70%
B17	< 70%
B18	< 70%
B19	< 70%
B20	< 70%
